This is an account of results in patent US20240299575A1 (DENALI THERAPEUTICS, published 2024).

The target of test [1] is T1, Human transferrin receptor protein 1 (TFR1) (human, UniProt P02786 89-760, limits assumed).
T1 construct: also called huTfR
Briefly: column 'Affinity' of the construct table; method not stated.

Test [2] concerns the target T1, Human transferrin receptor protein 1 …. The test is described as above. The source holds these as a separate data set.

Substitutions are numbered along the chain they refer to. Names and notes keep the numbering of the source. Read-outs that look alike come from different tables or passages of the source.

T1 sequence (P02786 89-760 limits assumed): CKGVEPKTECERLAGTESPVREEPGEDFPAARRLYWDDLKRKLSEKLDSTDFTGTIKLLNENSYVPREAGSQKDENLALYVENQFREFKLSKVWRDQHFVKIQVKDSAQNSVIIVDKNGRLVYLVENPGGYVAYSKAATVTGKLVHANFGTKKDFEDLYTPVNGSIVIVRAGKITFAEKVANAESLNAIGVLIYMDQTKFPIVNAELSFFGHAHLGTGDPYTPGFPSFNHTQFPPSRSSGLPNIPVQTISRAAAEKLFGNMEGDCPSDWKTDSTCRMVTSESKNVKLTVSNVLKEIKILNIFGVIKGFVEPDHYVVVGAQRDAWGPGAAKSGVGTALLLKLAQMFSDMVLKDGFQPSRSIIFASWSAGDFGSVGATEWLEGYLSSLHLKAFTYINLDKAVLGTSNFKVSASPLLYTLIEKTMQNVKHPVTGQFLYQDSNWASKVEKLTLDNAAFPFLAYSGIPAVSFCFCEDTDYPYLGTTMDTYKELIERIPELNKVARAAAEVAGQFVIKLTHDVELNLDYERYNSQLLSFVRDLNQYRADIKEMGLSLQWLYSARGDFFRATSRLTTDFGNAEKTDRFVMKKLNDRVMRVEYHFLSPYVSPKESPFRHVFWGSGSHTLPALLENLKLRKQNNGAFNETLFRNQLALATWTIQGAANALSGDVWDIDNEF

B1: TV variant N297G knob (DNP02 Fab-Fc dimer fusion, CH3C.35.23.2 on the knob chain, LALAPG, N297G on the knob chain) (antibody, human IgG1, kappa, L234A L235A, N297G)
light: EIVMTQSPATLSLSPGERATLSCSASSSVSYMYWYQQKPGQAPRLLIYDTSNLASGIPARFSGSGSGTDFTLTISSLQPEDFAVYYCQQWSSYPPITFGQGTKVEIKRTVAAPSVFIFPPSDEQLKSGTASVVCLLNNFYPREAKVQWKVDNALQSGNSQESVTEQDSKDSTYSLSSTLTLSKADYEKHKVYACEVTHQGLSSPVTKSFNRGEC
heavy 1: QVQLQESGPGLVKPSETLSLTCAVSGYSITSDYAWNWIRQPPGKGLEWIGYMSYSGSTRYNPSLRSRVTISVDTSKNQFSLKLSSVTAADTAVYYCARGWPLAYWGQGTLVTVSSASTKGPSVFPLAPSSKSTSGGTAALGCLVKDYFPEPVTVSWNSGALTSGVHTFPAVLQSSGLYSLSSVVTVPSSSLGTQTYICNVNHKPSNTKVDKKVEPKSCDKTHTCPPCPAPEAAGGPSVFLFPPKPKDTLMISRTPEVTCVVVDVSHEDPEVKFNWYVDGVEVHNAKTKPREEQYGSTYRVVSVLTVLHQDWLNGKEYKCKVSNKALGAPIEKTISKAKGQPREPQVYTLPPSRDELTKNQVSLWCLVKGFYPSDIAVEWESYGTEWANYKTTPPVLDSDGSFFLYSKLTVTKEEWQQGFVFSCSVMHEALHNHYTQKSLSLSPGK
heavy 2: QVQLQESGPGLVKPSETLSLTCAVSGYSITSDYAWNWIRQPPGKGLEWIGYMSYSGSTRYNPSLRSRVTISVDTSKNQFSLKLSSVTAADTAVYYCARGWPLAYWGQGTLVTVSSASTKGPSVFPLAPSSKSTSGGTAALGCLVKDYFPEPVTVSWNSGALTSGVHTFPAVLQSSGLYSLSSVVTVPSSSLGTQTYICNVNHKPSNTKVDKKVEPKSCDKTHTCPPCPAPEAAGGPSVFLFPPKPKDTLMISRTPEVTCVVVDVSHEDPEVKFNWYVDGVEVHNAKTKPREEQYNSTYRVVSVLTVLHQDWLNGKEYKCKVSNKALGAPIEKTISKAKGQPREPQVYTLPPSRDELTKNQVSLSCAVKGFYPSDIAVEWESNGQPENNYKTTPPVLDSDGSFFLVSKLTVDKSRWQQGNVFSCSVMHEALHNHYTQKSLSLSPGK
notes: Knob-in-hole heterodimer with non-targeting DNP02 Fabs; also called BTGase Knob
Turning to B1, in test [1], binding was characterised by a dissociation constant (Kd) of 100 nM.

B2: TV variant N297G OTR2 (DNP02 Fab-Fc dimer fusion, CH3C.35.23.2 on the knob chain, LALAPG, N297G on both chains) (antibody, human IgG1, kappa, L234A L235A, N297G)
light: B1 light
heavy 1: B1 heavy 1
heavy 2: B1 heavy 2 with N295G
notes: Knob-in-hole heterodimer with non-targeting DNP02 Fabs; also called BTGase DAR2
Molecule B2 displayed a Kd in test [1] of 100 nM.

B3: TV variant T289C (DNP02 Fab-Fc dimer fusion, CH3C.35.23.2 on the knob chain, LALAPG, T289C on the hole chain) (antibody, human IgG1, kappa, L234A L235A)
light: B1 light
heavy 1: B1 heavy 1 with G295N
heavy 2: B1 heavy 2 with T287C
notes: Knob-in-hole heterodimer with non-targeting DNP02 Fabs
For B3, in test [1], binding was characterised by a dissociation constant (Kd) of 100 nM.

B4: TV variant A114C (DNP02 Fab-Fc dimer fusion, CH3C.35.23.2 on the knob chain, LALAPG, A114C (Kabat) on the hole chain) (antibody, human IgG1, kappa, L234A L235A)
light: B1 light
heavy 1: B1 heavy 1 with G295N
heavy 2: B1 heavy 2 with A116C
notes: as for B3
Take B4: binding in test [1] was characterised by a dissociation constant (Kd) of 100 nM. In other words, the sub-micromolar range.

B5: TV variant K149C (DNP02 Fab-Fc dimer fusion, CH3C.35.23.2 on the knob chain, LALAPG, K149C on the DNP02 light chain) (antibody, human IgG1, kappa, L234A L235A)
light: B1 light with K149C
heavy 1: B1 heavy 1 with G295N
heavy 2: B1 heavy 2
notes: as for B3
Consider B5, for which the Kd in test [1] was found to be 100 nM.

B6: TV variant N297G hole (DNP02 Fab-Fc dimer fusion, CH3C.35.23.2 on the knob chain, LALAPG, N297G on the hole chain) (antibody, human IgG1, kappa, L234A L235A, N297G)
light: B1 light
heavy 1: B1 heavy 1 with G295N
heavy 2: B1 heavy 2 with N295G
notes: Knob-in-hole heterodimer with non-targeting DNP02 Fabs; also called BTGase Hole
Regarding B6, in test [1], the affinity, expressed as Kd, was 100 nM.

B7: TV variant S442C (RSV Fab-Fc dimer fusion, CH3C.35.23.2 on the knob chain, S442C on the hole chain) (antibody, human IgG1, kappa, L234A L235A)
light: DIQMTQSPSTLSASVGDRVTITCKCQLSVGYMHWYQQKPGKAPKLLIYDTSKLASGVPSRFSGSGSGTEFTLTISSLQPDDFATYYCFQGSGYPFTFGGGTKLEIKRTVAAPSVFIFPPSDEQLKSGTASVVCLLNNFYPREAKVQWKVDNALQSGNSQESVTEQDSKDSTYSLSSTLTLSKADYEKHKVYACEVTHQGLSSPVTKSFNRGEC
heavy 1: QVTLRESGPALVKPTQTLTLTCTFSGFSLSTSGMSVGWIRQPPGKALEWLADIWWDDKKDYNPSLKSRLTISKDTSKNQVVLKVTNMEPADTATYYCARSMITNWYFDVWGAGTTVTVSSASTKGPSVFPLAPSSKSTSGGTAALGCLVKDYFPEPVTVSWNSGALTSGVHTFPAVLQSSGLYSLSSVVTVPSSSLGTQTYICNVNHKPSNTKVDKKVEPKSCDKTHTCPPCPAPEAAGGPSVFLFPPKPKDTLMISRTPEVTCVVVDVSHEDPEVKFNWYVDGVEVHNAKTKPREEQYNSTYRVVSVLTVLHQDWLNGKEYKCKVSNKALPAPIEKTISKAKGQPREPQVYTLPPSRDELTKNQVSLWCLVKGFYPSDIAVEWESYGTEWANYKTTPPVLDSDGSFFLYSKLTVTKEEWQQGFVFSCSVMHEALHNHYTQKSLSLSPGK
heavy 2: QVTLRESGPALVKPTQTLTLTCTFSGFSLSTSGMSVGWIRQPPGKALEWLADIWWDDKKDYNPSLKSRLTISKDTSKNQVVLKVTNMEPADTATYYCARSMITNWYFDVWGAGTTVTVSSASTKGPSVFPLAPSSKSTSGGTAALGCLVKDYFPEPVTVSWNSGALTSGVHTFPAVLQSSGLYSLSSVVTVPSSSLGTQTYICNVNHKPSNTKVDKKVEPKSCDKTHTCPPCPAPEAAGGPSVFLFPPKPKDTLMISRTPEVTCVVVDVSHEDPEVKFNWYVDGVEVHNAKTKPREEQYNSTYRVVSVLTVLHQDWLNGKEYKCKVSNKALPAPIEKTISKAKGQPREPQVYTLPPSRDELTKNQVSLSCAVKGFYPSDIAVEWESNGQPENNYKTTPPVLDSDGSFFLVSKLTVDKSRWQQGNVFSCSVMHEALHNHYTQKSLCLSPGK
notes: also called Conjugation site S442C
Take B7: the Kd in test [2] came out at 100 nM. That is a sub-micromolar value.

B8: TV variant SansFab (Fc polypeptide dimer without Fab, CH3C.35.23.2 on the knob chain, S239C on the hole chain) (designed binder)
chain 1: DKTHTCPPCPAPEAAGGPSVFLFPPKPKDTLMISRTPEVTCVVVDVSHEDPEVKFNWYVDGVEVHNAKTKPREEQYNSTYRVVSVLTVLHQDWLNGKEYKCKVSNKALPAPIEKTISKAKGQPREPQVYTLPPSRDELTKNQVSLWCLVKGFYPSDIAVEWESYGTEWANYKTTPPVLDSDGSFFLYSKLTVTKEEWQQGFVFSCSVMHEALHNHYTQKSLSLSPGK
chain 2: DKTHTCPPCPAPEAAGGPCVFLFPPKPKDTLMISRTPEVTCVVVDVSHEDPEVKFNWYVDGVEVHNAKTKPREEQYNSTYRVVSVLTVLHQDWLNGKEYKCKVSNKALPAPIEKTISKAKGQPREPQVYTLPPSRDELTKNQVSLSCAVKGFYPSDIAVEWESNGQPENNYKTTPPVLDSDGSFFLVSKLTVDKSRWQQGNVFSCSVMHEALHNHYTQKSLSLSPGK
notes: Fc knob-in-hole heterodimer with a portion of the IgG1 hinge and LALA mutations; also called No Fab
Take B8: binding in test [2] was characterised by a dissociation constant (Kd) of 100 nM.
